Assay results reported in patent publication US20160200815A1.

Key:
[1] = target: hTIM3-Fc murine C′C″ loop (human, C′C″ loop replaced by mouse TIM-3); assay: ELISA, construct coated on plate
[2] = target: hTIM3-Fc murine CC′ loop (human, CC′ loop replaced by mouse TIM-3); assay: ELISA, construct coated on plate
[3] = target: hTIM3-Fc murine FG loop (human, FG loop replaced by mouse TIM-3); assay: ELISA, construct coated on plate
hTIM3-Fc WT (human) = assay: ELISA, construct coated on plate
[4] = target: hTIM3-Fc murine DE loop (human, DE loop replaced by mouse TIM-3); assay: ELISA, construct coated on plate
[5] = target: hTIM3-Fc murine BC loop (human, BC loop replaced by mouse TIM-3); assay: ELISA, construct coated on plate
[6] = target: human TIM-3 on cells (human) (UniProt Q8TDQ0); assay: cell-based or functional assay

- Absorbance at 450 nm [1]: 1.48 A450
- Absorbance at 450 nm [2]: 0.094 A450
- Absorbance at 450 nm [3]: 1.48 A450
- Absorbance at 450 nm (hTIM3-Fc WT (human)): 1.34 A450
- Absorbance at 450 nm [4]: 0.978 A450
- Absorbance at 450 nm [5]: 1.23 A450
- IL-2 secretion by SEB-activated PBMCs (% of the activity of anti-PD-L1) [6]: 50
Substance: anti-TIM-3 mAb F38-2E2 (BioLegend, 345010) (antibody)
